Rescue of HA-MyBPC1 from proteasome degradation in co-transfected HEK293T cells (MyBPC1 level by western blot, rescue by wild-type USP25m = 1) data for three substances are collected here from paper PMC2679190.

This test has as its target MyBPC1 (Myosin Binding Protein C1) (UniProt Q00872).

Where only a bound is given, the exact number is not on record here.

UniProt Q00872, sequence (Q00872 whole entry): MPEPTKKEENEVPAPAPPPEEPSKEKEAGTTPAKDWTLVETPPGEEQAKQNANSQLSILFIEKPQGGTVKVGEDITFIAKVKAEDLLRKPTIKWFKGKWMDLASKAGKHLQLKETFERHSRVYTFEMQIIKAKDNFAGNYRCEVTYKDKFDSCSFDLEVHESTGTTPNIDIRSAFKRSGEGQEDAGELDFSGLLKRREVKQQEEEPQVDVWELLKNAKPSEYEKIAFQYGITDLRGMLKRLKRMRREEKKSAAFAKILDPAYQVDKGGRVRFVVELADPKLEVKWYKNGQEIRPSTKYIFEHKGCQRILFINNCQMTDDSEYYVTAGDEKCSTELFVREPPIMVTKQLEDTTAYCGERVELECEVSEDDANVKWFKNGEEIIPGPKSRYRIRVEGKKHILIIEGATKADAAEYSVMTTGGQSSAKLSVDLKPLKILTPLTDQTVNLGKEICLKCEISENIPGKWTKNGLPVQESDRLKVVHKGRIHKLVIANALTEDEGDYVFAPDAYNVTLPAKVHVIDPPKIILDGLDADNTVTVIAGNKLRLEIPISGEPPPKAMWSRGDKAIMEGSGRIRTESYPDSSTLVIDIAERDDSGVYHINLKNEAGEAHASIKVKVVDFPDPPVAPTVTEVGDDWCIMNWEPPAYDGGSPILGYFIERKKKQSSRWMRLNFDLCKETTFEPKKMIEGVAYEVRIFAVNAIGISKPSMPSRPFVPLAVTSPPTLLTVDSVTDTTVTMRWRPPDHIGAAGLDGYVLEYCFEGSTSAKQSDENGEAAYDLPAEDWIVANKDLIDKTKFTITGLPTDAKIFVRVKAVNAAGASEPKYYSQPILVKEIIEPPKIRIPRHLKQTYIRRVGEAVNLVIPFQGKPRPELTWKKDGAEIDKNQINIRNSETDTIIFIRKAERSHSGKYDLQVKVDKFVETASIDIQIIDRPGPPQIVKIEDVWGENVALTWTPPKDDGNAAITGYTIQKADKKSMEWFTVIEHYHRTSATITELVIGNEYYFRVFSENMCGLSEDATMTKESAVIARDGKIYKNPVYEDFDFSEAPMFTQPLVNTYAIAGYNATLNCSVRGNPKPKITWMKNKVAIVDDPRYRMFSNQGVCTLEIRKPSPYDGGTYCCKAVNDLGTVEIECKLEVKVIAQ

Regarding “USP25m ΔUBA (Δ19-58 aa, inclusive) (enzyme)”, the rescue of HA-MyBPC1 from proteasome degradation in co-transfected HEK293T cells (MyBPC1 level by western blot, rescue by wild-type USP25m = 1) worked out at 3 fold.

“USP25m ΔUIM1 (Δ96-115 aa, inclusive) (enzyme)” yielded a rescue of HA-MyBPC1 from proteasome degradation in co-transfected HEK293T cells (MyBPC1 level by western blot, rescue by wild-type USP25m = 1) of 2 fold.

“USP25m ΔUBA-UIM1-UIM2 (Δ19-141 aa, inclusive) (enzyme)” came in with a rescue of HA-MyBPC1 from proteasome degradation in co-transfected HEK293T cells (MyBPC1 level by western blot, rescue by wild-type USP25m = 1) of under 8 fold.
